# Test results published in article PMC10030467 (Nature Communications, 2023).
# B1: TRIM72 W277A (natural protein, human, UniProt Q6ZMU5-1 2-477, looked up)
# chain: SAAPGLLHQELSCPLCLQLFDAPVTAECGHSFCRACLGRVAGEPAADGTVLCPCCQAPTRPQALSTNLQLARLVEGLAQVPQGHCEEHLDPLSIYCEQDRALVCGVCASLGSHRGHRLLPAAEAHARLKTQLPQQKLQLQEACMRKEKSVAVLEHQLVEVEETVRQFRGAVGEQLGKMRVFLAALEGSLDREAERVRGEAGVALRRELGSLNSYLEQLRQMEKVLEEVADKPQTEFLMKYCLVTSRLQKILAESPPPARLDIQLPIISDDFKFQVARKMFRALMPALEELTFDPSSAHPSLVVSSSGRRVECSEQKAPPAGEDPRQFDKAVAVVAHQQLSEGEHYWEVDVGDKPRWALGVIAAEAPRRGRLHAVPSQGLWLLGLREGKILEAHVEAKEPRALRSPERRPTRIGLYLSFGDGVLSFYDASDADALVPLFAFHERLPRPVYPFFDVCWHDKGKNAQPLLLVGPEGAEA
# notes: TRIM72, human, residues 2-477, point mutant; primers are in Supplementary Data 3; source: E. coli Rosetta (DE3), purified; not shown: His-Sumo, N-terminal, cleaved
# B2: TRIM72 M179E (natural protein, human, UniProt Q6ZMU5-1 2-477, looked up)
# chain: SAAPGLLHQELSCPLCLQLFDAPVTAECGHSFCRACLGRVAGEPAADGTVLCPCCQAPTRPQALSTNLQLARLVEGLAQVPQGHCEEHLDPLSIYCEQDRALVCGVCASLGSHRGHRLLPAAEAHARLKTQLPQQKLQLQEACMRKEKSVAVLEHQLVEVEETVRQFRGAVGEQLGKERVFLAALEGSLDREAERVRGEAGVALRRELGSLNSYLEQLRQMEKVLEEVADKPQTEFLMKYCLVTSRLQKILAESPPPARLDIQLPIISDDFKFQVWRKMFRALMPALEELTFDPSSAHPSLVVSSSGRRVECSEQKAPPAGEDPRQFDKAVAVVAHQQLSEGEHYWEVDVGDKPRWALGVIAAEAPRRGRLHAVPSQGLWLLGLREGKILEAHVEAKEPRALRSPERRPTRIGLYLSFGDGVLSFYDASDADALVPLFAFHERLPRPVYPFFDVCWHDKGKNAQPLLLVGPEGAEA
# notes: TRIM72, human, residues 2-477, point mutant; source: E. coli Rosetta (DE3), purified; not shown: His-Sumo, N-terminal, cleaved
# B3: TRIM72 M179A (natural protein, human, UniProt Q6ZMU5-1 2-477, looked up)
# chain: SAAPGLLHQELSCPLCLQLFDAPVTAECGHSFCRACLGRVAGEPAADGTVLCPCCQAPTRPQALSTNLQLARLVEGLAQVPQGHCEEHLDPLSIYCEQDRALVCGVCASLGSHRGHRLLPAAEAHARLKTQLPQQKLQLQEACMRKEKSVAVLEHQLVEVEETVRQFRGAVGEQLGKARVFLAALEGSLDREAERVRGEAGVALRRELGSLNSYLEQLRQMEKVLEEVADKPQTEFLMKYCLVTSRLQKILAESPPPARLDIQLPIISDDFKFQVWRKMFRALMPALEELTFDPSSAHPSLVVSSSGRRVECSEQKAPPAGEDPRQFDKAVAVVAHQQLSEGEHYWEVDVGDKPRWALGVIAAEAPRRGRLHAVPSQGLWLLGLREGKILEAHVEAKEPRALRSPERRPTRIGLYLSFGDGVLSFYDASDADALVPLFAFHERLPRPVYPFFDVCWHDKGKNAQPLLLVGPEGAEA
# notes: as for B2
# B4: TRIM72 W277E (natural protein, human, UniProt Q6ZMU5-1 2-477, looked up)
# chain: SAAPGLLHQELSCPLCLQLFDAPVTAECGHSFCRACLGRVAGEPAADGTVLCPCCQAPTRPQALSTNLQLARLVEGLAQVPQGHCEEHLDPLSIYCEQDRALVCGVCASLGSHRGHRLLPAAEAHARLKTQLPQQKLQLQEACMRKEKSVAVLEHQLVEVEETVRQFRGAVGEQLGKMRVFLAALEGSLDREAERVRGEAGVALRRELGSLNSYLEQLRQMEKVLEEVADKPQTEFLMKYCLVTSRLQKILAESPPPARLDIQLPIISDDFKFQVERKMFRALMPALEELTFDPSSAHPSLVVSSSGRRVECSEQKAPPAGEDPRQFDKAVAVVAHQQLSEGEHYWEVDVGDKPRWALGVIAAEAPRRGRLHAVPSQGLWLLGLREGKILEAHVEAKEPRALRSPERRPTRIGLYLSFGDGVLSFYDASDADALVPLFAFHERLPRPVYPFFDVCWHDKGKNAQPLLLVGPEGAEA
# notes: as for B2
# Target: the molecule itself
# Test: SEC-MALS; point mutants, 100 μL at 1 mg/mL; Superdex 200 increase, 20 mM Tris-HCl pH 8.0, 200 mM NaCl, 0.3 mM TCEP
row,Protein,stoichiometry N
1,B1,2
2,B2,2
3,B3,2
4,B4,2
